From article PMC6561178, “Caulobacter crescentus Hfq structure reveals a conserved mechanism of RNA annealing regulation”

How the values were obtained:
[1] = target: Caulobacter crescentus Hfq (Caulobacter crescentus); test: crystal structure; hanging-drop vapor diffusion; Cc Hfq at 7 mg/mL; 0.2 M sodium thiocyanate, 17% PEG 3350; 2.15 Å; four hexamers in the asymmetric unit, space group P4_(3)
EcCc Hfq [2] = target: T1, EcCc Hfq (Escherichia coli / Caulobacter …, UniProt P0A6X3 1-67+B8GW92:71-82, internal_change); test: EMSA; Hill n 1.8; EMSA: 34 mM Tris-HCl pH 7.5, 50 mM NaCl, 50 mM KCl, 50 mM NH4Cl, 11.4 mM EDTA, 12% glycerol, 30 C, 30 min, ~1 nM 32P-RNA, Kd in Hfq6; anisotropy: 10 mM Tris-HCl; settings: protein: recombinant; tags: untagged; chain copies: 6; label: 32P; stem-loops
Cc78 [3] = target: T2, Cc78 (Caulobacter crescentus NA1000, UniProt B8GW92 1-78, del79-82); test: EMSA; Hill n 1.2; EMSA: 34 mM Tris-HCl pH 7.5, 50 mM NaCl, 50 mM KCl, 50 mM NH4Cl, 11.4 mM EDTA, 12% glycerol, 30 C, 30 min, ~1 nM 32P-RNA, Kd in Hfq6; anisotropy: 10 mM Tris-HCl; settings: protein: recombinant; tags: untagged after self-cleaved intein; chain copies: 6; label: 32P; stem-loops
T2 sequence: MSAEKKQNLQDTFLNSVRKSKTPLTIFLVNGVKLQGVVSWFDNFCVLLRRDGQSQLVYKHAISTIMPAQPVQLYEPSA

Ec65 [4] = target: T3, Ec65 (Escherichia coli, UniProt P0A6X3 1-65, del66-102); test: EMSA; Hill n 1.7; EMSA: 34 mM Tris-HCl pH 7.5, 50 mM NaCl, 50 mM KCl, 50 mM NH4Cl, 11.4 mM EDTA, 12% glycerol, 30 C, 30 min, ~1 nM 32P-RNA, Kd in Hfq6; anisotropy: 10 mM Tris-HCl; settings: protein: recombinant; tags: untagged; chain copies: 6; label: 32P; stem-loops
Ec Hfq (Hfq102) [5] = target: T4, Ec Hfq (Hfq102) (Escherichia coli, UniProt P0A6X3 1-102); test: EMSA; Hill n 1; Tris-glycine gel; EMSA: 34 mM Tris-HCl pH 7.5, 50 mM NaCl, 50 mM KCl, 50 mM NH4Cl, 11.4 mM EDTA, 12% glycerol, 30 C, 30 min, ~1 nM 32P-RNA, Kd in Hfq6; anisotropy: 10 mM Tris-HCl; settings: protein: recombinant; tags: untagged; chain copies: 6; label: 32P; stem-loops
EcCc Hfq [6] = target: T1, EcCc Hfq; test: EMSA; Hill n 30.2; EMSA: 34 mM Tris-HCl pH 7.5, 50 mM NaCl, 50 mM KCl, 50 mM NH4Cl, 11.4 mM EDTA, 12% glycerol, 30 C, 30 min, ~1 nM 32P-RNA, Kd in Hfq6; anisotropy: 10 mM Tris-HCl; settings: protein: recombinant; tags: untagged; chain copies: 6; label: 32P; stem-loops
Ec65 [7] = target: T3, Ec65; test: EMSA; Hill n 1.0; EMSA: 34 mM Tris-HCl pH 7.5, 50 mM NaCl, 50 mM KCl, 50 mM NH4Cl, 11.4 mM EDTA, 12% glycerol, 30 C, 30 min, ~1 nM 32P-RNA, Kd in Hfq6; anisotropy: 10 mM Tris-HCl; settings: protein: recombinant; tags: untagged; chain copies: 6; label: 32P; stem-loops
Ec Hfq (Hfq102) [8] = target: T4, Ec Hfq (Hfq102); test: EMSA; Hill n 10.1; EMSA: 34 mM Tris-HCl pH 7.5, 50 mM NaCl, 50 mM KCl, 50 mM NH4Cl, 11.4 mM EDTA, 12% glycerol, 30 C, 30 min, ~1 nM 32P-RNA, Kd in Hfq6; anisotropy: 10 mM Tris-HCl; settings: protein: recombinant; tags: untagged; chain copies: 6; label: 32P; stem-loops
Cc78 [9] = target: T2, Cc78; test: EMSA; Hill n 3.5; EMSA: 34 mM Tris-HCl pH 7.5, 50 mM NaCl, 50 mM KCl, 50 mM NH4Cl, 11.4 mM EDTA, 12% glycerol, 30 C, 30 min, ~1 nM 32P-RNA, Kd in Hfq6; anisotropy: 10 mM Tris-HCl; settings: protein: recombinant; tags: untagged after self-cleaved intein; chain copies: 6; label: 32P; stem-loops
EcCc Hfq [10] = target: T1, EcCc Hfq; test: EMSA; Hill n 8.7; EMSA: 34 mM Tris-HCl pH 7.5, 50 mM NaCl, 50 mM KCl, 50 mM NH4Cl, 11.4 mM EDTA, 12% glycerol, 30 C, 30 min, ~1 nM 32P-RNA, Kd in Hfq6; anisotropy: 10 mM Tris-HCl; settings: protein: recombinant; tags: untagged; chain copies: 6; label: 32P; stem-loops
Ec Hfq (Hfq102) [11] = target: T4, Ec Hfq (Hfq102); test: EMSA; Hill n 11.9; EMSA: 34 mM Tris-HCl pH 7.5, 50 mM NaCl, 50 mM KCl, 50 mM NH4Cl, 11.4 mM EDTA, 12% glycerol, 30 C, 30 min, ~1 nM 32P-RNA, Kd in Hfq6; anisotropy: 10 mM Tris-HCl; settings: protein: recombinant; tags: untagged; chain copies: 6; label: 32P; stem-loops
Cc78 [12] = target: T2, Cc78; test: EMSA; Hill n 2.5; EMSA: 34 mM Tris-HCl pH 7.5, 50 mM NaCl, 50 mM KCl, 50 mM NH4Cl, 11.4 mM EDTA, 12% glycerol, 30 C, 30 min, ~1 nM 32P-RNA, Kd in Hfq6; anisotropy: 10 mM Tris-HCl; settings: protein: recombinant; tags: untagged after self-cleaved intein; chain copies: 6; label: 32P; stem-loops
Ec65 [13] = target: T3, Ec65; test: EMSA; Hill n 2.4; EMSA: 34 mM Tris-HCl pH 7.5, 50 mM NaCl, 50 mM KCl, 50 mM NH4Cl, 11.4 mM EDTA, 12% glycerol, 30 C, 30 min, ~1 nM 32P-RNA, Kd in Hfq6; anisotropy: 10 mM Tris-HCl; settings: protein: recombinant; tags: untagged; chain copies: 6; label: 32P; stem-loops
Cc78 [14] = target: T2, Cc78; test: EMSA; Hill n 1.6; EMSA: 34 mM Tris-HCl pH 7.5, 50 mM NaCl, 50 mM KCl, 50 mM NH4Cl, 11.4 mM EDTA, 12% glycerol, 30 C, 30 min, ~1 nM 32P-RNA, Kd in Hfq6; anisotropy: 10 mM Tris-HCl; settings: protein: recombinant; tags: untagged after self-cleaved intein; chain copies: 6; label: 32P; folded
EcCc Hfq [15] = target: T1, EcCc Hfq; test: EMSA; Hill n 1.0; EMSA: 34 mM Tris-HCl pH 7.5, 50 mM NaCl, 50 mM KCl, 50 mM NH4Cl, 11.4 mM EDTA, 12% glycerol, 30 C, 30 min, ~1 nM 32P-RNA, Kd in Hfq6; anisotropy: 10 mM Tris-HCl; settings: protein: recombinant; tags: untagged; chain copies: 6; label: 32P; folded
Ec Hfq (Hfq102) [16] = target: T4, Ec Hfq (Hfq102); test: EMSA; Hill n 13; EMSA: 34 mM Tris-HCl pH 7.5, 50 mM NaCl, 50 mM KCl, 50 mM NH4Cl, 11.4 mM EDTA, 12% glycerol, 30 C, 30 min, ~1 nM 32P-RNA, Kd in Hfq6; anisotropy: 10 mM Tris-HCl; settings: protein: recombinant; tags: untagged; chain copies: 6; label: 32P; folded
Ec65 [17] = target: T3, Ec65; test: EMSA; Hill n 3.7; EMSA: 34 mM Tris-HCl pH 7.5, 50 mM NaCl, 50 mM KCl, 50 mM NH4Cl, 11.4 mM EDTA, 12% glycerol, 30 C, 30 min, ~1 nM 32P-RNA, Kd in Hfq6; anisotropy: 10 mM Tris-HCl; settings: protein: recombinant; tags: untagged; chain copies: 6; label: 32P; folded
Ec65 [18] = target: T3, Ec65; test: EMSA; Hill n 3.1; EMSA: 34 mM Tris-HCl pH 7.5, 50 mM NaCl, 50 mM KCl, 50 mM NH4Cl, 11.4 mM EDTA, 12% glycerol, 30 C, 30 min, ~1 nM 32P-RNA, Kd in Hfq6; anisotropy: 10 mM Tris-HCl; settings: protein: recombinant; tags: untagged; chain copies: 6; label: 32P; stem-loops
Ec Hfq (Hfq102) [19] = target: T4, Ec Hfq (Hfq102); test: EMSA; Hill n 4.1; EMSA: 34 mM Tris-HCl pH 7.5, 50 mM NaCl, 50 mM KCl, 50 mM NH4Cl, 11.4 mM EDTA, 12% glycerol, 30 C, 30 min, ~1 nM 32P-RNA, Kd in Hfq6; anisotropy: 10 mM Tris-HCl; settings: protein: recombinant; tags: untagged; chain copies: 6; label: 32P; stem-loops
Cc78 [20] = target: T2, Cc78; test: EMSA; Hill n 5.5; EMSA: 34 mM Tris-HCl pH 7.5, 50 mM NaCl, 50 mM KCl, 50 mM NH4Cl, 11.4 mM EDTA, 12% glycerol, 30 C, 30 min, ~1 nM 32P-RNA, Kd in Hfq6; anisotropy: 10 mM Tris-HCl; settings: protein: recombinant; tags: untagged after self-cleaved intein; chain copies: 6; label: 32P; stem-loops
EcCc Hfq [21] = target: T1, EcCc Hfq; test: EMSA; Hill n 4.5; EMSA: 34 mM Tris-HCl pH 7.5, 50 mM NaCl, 50 mM KCl, 50 mM NH4Cl, 11.4 mM EDTA, 12% glycerol, 30 C, 30 min, ~1 nM 32P-RNA, Kd in Hfq6; anisotropy: 10 mM Tris-HCl; settings: protein: recombinant; tags: untagged; chain copies: 6; label: 32P; stem-loops
Ec Hfq (Hfq102) [22] = target: T4, Ec Hfq (Hfq102); test: EMSA; Hill n 2.2; EMSA: 34 mM Tris-HCl pH 7.5, 50 mM NaCl, 50 mM KCl, 50 mM NH4Cl, 11.4 mM EDTA, 12% glycerol, 30 C, 30 min, ~1 nM 32P-RNA, Kd in Hfq6; anisotropy: 10 mM Tris-HCl; settings: protein: recombinant; tags: untagged; chain copies: 6; label: 32P
Ec Hfq (Hfq102) [23] = target: T4, Ec Hfq (Hfq102); test: EMSA; Hill n 4.4; EMSA: 34 mM Tris-HCl pH 7.5, 50 mM NaCl, 50 mM KCl, 50 mM NH4Cl, 11.4 mM EDTA, 12% glycerol, 30 C, 30 min, ~1 nM 32P-RNA, Kd in Hfq6; anisotropy: 10 mM Tris-HCl; settings: protein: recombinant; tags: untagged; chain copies: 6; label: 32P

For “Caulobacter crescentus Hfq (natural protein)”, the stoichiometry N [1] was 6.

B1: R133 (structured_RNA)
RNA: GGAGCCCUUUCGGGCGUUUCCUCCCAAUGACUCGGCCGCCCUCUUCUCCUGGAGGGCGGCCGUUCUUUU
In the case of B1, the Kd (EcCc Hfq [2]) is reported as 232 ± 46 nM, the Kd (Cc78 [3]) is reported as 242 ± 17 nM and the Kd (Ec65 [4]) is reported as 21.6 ± 1.3 nM. For the same molecule, the Kd (Ec Hfq (Hfq102) [5]) was 14.7 ± 1.3 nM.

B2: ChiX (structured_RNA)
RNA: GGGACACCGUCGCUUAAAGUGACGGCAUAAUAAUAAAAAAAUGAAAUUCCUCUUUGACGGGCCAAUAGCGAUAUUGGCCAUUUUUUU
B2 was tested, and the Kd (EcCc Hfq [6]) was 35.8 ± 0.4 nM, the Kd (Ec65 [7]) was 95 ± 27 nM and the Kd (Ec Hfq (Hfq102) [8]) was 20.3 ± 0.4 nM. The Kd (Cc78 [9]) was 32.4 ± 0.4 nM.

B3: DsrA (structured_RNA)
RNA: GGGAACACAUCAGAUUUCCUGGUGUAACGAAUUUUUUAAGUGCUUCUUGCUUAAGCAAGUUUCAUCCCGACCCCCUCAGGGUCGGGAUUUUUUU
For B3, the Kd (EcCc Hfq [10]) was 42.5 ± 1 nM, the Kd (Ec Hfq (Hfq102) [11]) was 21.1 ± 0.3 nM and the Kd (Cc78 [12]) was 62.2 ± 4.4 nM. It also gave a Kd (Ec65 [13]) of 12.6 ± 1.9 nM.

B4: RydC (structured_RNA)
RNA: GGCUUCCGAUGUAGACCCGUAUUCUUCGCCUGUACCACGGGUCGGUUUUAGUACAGGCGUUUUCUU
B4 was tested, and the Kd (Cc78 [14]) was 167 ± 11 nM, the Kd (EcCc Hfq [15]) was 237 ± 34 nM and the Kd (Ec Hfq (Hfq102) [16]) was 22.1 ± 0.2 nM. For the same molecule, the Kd (Ec65 [17]) was 12.3 ± 0.4 nM.

B5: RybB (structured_RNA)
RNA: GGCCACUGCUUUUCUUUGAUGUCCCCAUUUUGUGGAGCCCAUCAACCCCGCCAUUUCGGUUCAAGGUUGAUGGGUUUUUU
B5 gave a Kd (Ec65 [18]) of 27.1 ± 0.9 nM, a Kd (Ec Hfq (Hfq102) [19]) of 21.5 ± 2 nM and a Kd (Cc78 [20]) of 68.1 ± 1.9 nM. It also gave a Kd (EcCc Hfq [21]) of 37.3 ± 6.2 nM.

B6: cfa (structured_RNA)
RNA: GGUUGUUAAAGCUACGAUAAAUAUUAUGUUUUUACGGGGACAGGAUCGUUCCCGACUCACUAUGGAUAGUCAUUUCGGCAAGGGUUCCUCCUUUCCCUCUGUUCUACGUCGGAUUAUAGACUCGCGGUUUUUUCUGCGAGAUUUCUCACAAAGCCCAAAAAGCGUCUACGCUGUUUUAAGGUUCUGAUCACCGACCAGUGAUGGAGAAACUAUGAGUUCAUCGUGUAUAGAAGAAGUCAGUGUACCGGAUGACAAC
Molecule B6 has a Kd (Ec Hfq (Hfq102) [22]) of 19 ± 0.5 nM.

B7: hns (structured_RNA)
RNA: GAACAAACCACCCCAAUAUAAGUUUGAGAUUACUACAAUGAGCGAAGCACUUAAAAUUCUGAACAACAUCCGUACUCUUCGUGCGCAGGCAAGAGAAUGUACACUUGAAACGCUGGAAGAA
In the case of B7, the Kd (Ec Hfq (Hfq102) [23]) is reported as 19.7 ± 0.4 nM.
